The values below come from publication PMC10398670 (EMBO Reports, 2023).

Assay [1] concerns the target T1, MIRO‐1::His (C. elegans, UniProt Q94263 1-601).
T1 sequence (looked up): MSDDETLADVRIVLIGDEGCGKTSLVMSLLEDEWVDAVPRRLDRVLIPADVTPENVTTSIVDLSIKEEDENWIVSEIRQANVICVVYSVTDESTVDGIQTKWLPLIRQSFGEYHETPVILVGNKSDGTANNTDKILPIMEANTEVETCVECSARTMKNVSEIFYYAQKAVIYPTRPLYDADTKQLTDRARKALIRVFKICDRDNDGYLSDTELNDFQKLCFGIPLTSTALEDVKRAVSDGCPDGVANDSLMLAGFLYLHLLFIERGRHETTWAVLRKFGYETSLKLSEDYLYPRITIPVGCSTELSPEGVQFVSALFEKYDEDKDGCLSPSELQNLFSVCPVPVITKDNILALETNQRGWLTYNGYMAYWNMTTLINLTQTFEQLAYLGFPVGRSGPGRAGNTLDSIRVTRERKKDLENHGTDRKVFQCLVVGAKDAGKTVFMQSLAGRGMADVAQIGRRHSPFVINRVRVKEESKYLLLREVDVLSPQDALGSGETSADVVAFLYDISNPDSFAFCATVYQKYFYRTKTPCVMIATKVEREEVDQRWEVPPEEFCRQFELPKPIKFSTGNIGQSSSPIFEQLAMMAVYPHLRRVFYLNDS
Briefly: cross-linking.

Assay [2] concerns the target T2, GST::MIRO‐1 (C. elegans, UniProt Q94263 1-601).
T2 sequence (looked up): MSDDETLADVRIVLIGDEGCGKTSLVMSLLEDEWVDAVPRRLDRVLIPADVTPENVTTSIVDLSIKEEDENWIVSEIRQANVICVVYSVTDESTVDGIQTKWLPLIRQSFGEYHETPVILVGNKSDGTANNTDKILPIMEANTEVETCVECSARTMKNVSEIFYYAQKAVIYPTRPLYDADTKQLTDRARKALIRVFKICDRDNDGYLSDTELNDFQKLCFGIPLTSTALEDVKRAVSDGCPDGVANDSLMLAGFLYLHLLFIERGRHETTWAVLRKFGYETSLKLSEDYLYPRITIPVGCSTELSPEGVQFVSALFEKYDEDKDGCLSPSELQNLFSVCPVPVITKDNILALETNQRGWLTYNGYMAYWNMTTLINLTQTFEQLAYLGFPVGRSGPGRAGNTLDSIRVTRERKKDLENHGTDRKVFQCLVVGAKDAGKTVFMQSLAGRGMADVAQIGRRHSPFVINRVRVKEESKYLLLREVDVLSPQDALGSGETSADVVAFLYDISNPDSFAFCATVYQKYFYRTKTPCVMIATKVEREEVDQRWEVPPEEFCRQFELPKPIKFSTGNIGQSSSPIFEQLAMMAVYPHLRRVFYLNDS
Briefly: pull-down.

B1: VDAC‐1::His (natural protein, C. elegans, UniProt Q21752 1-283, looked up)
chain: MAPPTFADLGKSAKDLFNKGYNFGFLKIDSTTRAGDNKEVEFKSAASHNIGSGKLGGNLDVKYKIPQYGITLTEKWNTENQLGTVIEVNEQFGRGLKVTLDSLYAPHAGKRSGKVKLDWALPTARVTADVGVTSAPVINAAGVFSRDGWLIGAAATFDSSSNKLAATSLAFGHSTPQYTLHSFVINSTDFGASLYHKVASNVEVGTQLGWKVGGNGADYALATKYAPSRDLTVRAKVNSSSQVAVAATHSLSPALKLTLSTQFNLAANDAHKFGLGLEFDPSN
Consider B1, for which the binding result in assay [1] and in assay [2] was “binds” throughout.
